B1: HcΔ24+4A (other)
chain: MAAAANREHLMIDRPYVLLAVLFVMFLSLIGLLAIAGIRLHRAAIYTAEIHKSLSTNLDVTNSIEHQVKDVLTPLFKIIGDEVGLRTPQRFTDLVKFISDKIKFLNPDREYDFRDLTWCINPPERIKLDYDQYCADVAAEELMNALVNSTLLETRTTNQFLAVSKGNCSGPTTIRGQFSNMSLSLLDLYLGRGYNVSSIVTMTSQGMYGGTYLVEKPNLSSKRSELSQLSMYRVFEVGVIRNPGLGAPVFHMTNYLEQPVSNDLSNCMVALGELKLAALCHGEDSITIPYQGSGKGVSFQLVKLGVWKSPTDMQSWVPLSTDDPVIDRLYLSSHRGVIADNQAKWAVPTTRTDDKLRMETCFQQACKGKIQALCENPEWAPLKDNRIPSYGVLSVDLSLTVELKIKIASGFGPLITHGSGMDLYKSNHNNVYWLTIPPMKNLALGVINTLEWIPRFKVSPYLFTVPIKEAGGDCHAPTYLPAEVDGDVKLSSNLVILPGQDLQYVLATYDTSRVEHAVVYYVYSPSRSFSYFYPFRLPIKGVPIELQVECFTWDQKLWCRHFCVLADSESGGHITHSGMVGMGVSCTVTREDGTNRR
B2: HcΔ18 (other)
chain: MGSRIVINREHLMIDRPYVLLAVLFVMFLSLIGLLAIAGIRLHRAAIYTAEIHKSLSTNLDVTNSIEHQVKDVLTPLFKIIGDEVGLRTPQRFTDLVKFISDKIKFLNPDREYDFRDLTWCINPPERIKLDYDQYCADVAAEELMNALVNSTLLETRTTNQFLAVSKGNCSGPTTIRGQFSNMSLSLLDLYLGRGYNVSSIVTMTSQGMYGGTYLVEKPNLSSKRSELSQLSMYRVFEVGVIRNPGLGAPVFHMTNYLEQPVSNDLSNCMVALGELKLAALCHGEDSITIPYQGSGKGVSFQLVKLGVWKSPTDMQSWVPLSTDDPVIDRLYLSSHRGVIADNQAKWAVPTTRTDDKLRMETCFQQACKGKIQALCENPEWAPLKDNRIPSYGVLSVDLSLTVELKIKIASGFGPLITHGSGMDLYKSNHNNVYWLTIPPMKNLALGVINTLEWIPRFKVSPYLFTVPIKEAGGDCHAPTYLPAEVDGDVKLSSNLVILPGQDLQYVLATYDTSRVEHAVVYYVYSPSRSFSYFYPFRLPIKGVPIELQVECFTWDQKLWCRHFCVLADSESGGHITHSGMVGMGVSCTVTREDGTNRR
B3: HcΔ19 (other)
chain: MSRIVINREHLMIDRPYVLLAVLFVMFLSLIGLLAIAGIRLHRAAIYTAEIHKSLSTNLDVTNSIEHQVKDVLTPLFKIIGDEVGLRTPQRFTDLVKFISDKIKFLNPDREYDFRDLTWCINPPERIKLDYDQYCADVAAEELMNALVNSTLLETRTTNQFLAVSKGNCSGPTTIRGQFSNMSLSLLDLYLGRGYNVSSIVTMTSQGMYGGTYLVEKPNLSSKRSELSQLSMYRVFEVGVIRNPGLGAPVFHMTNYLEQPVSNDLSNCMVALGELKLAALCHGEDSITIPYQGSGKGVSFQLVKLGVWKSPTDMQSWVPLSTDDPVIDRLYLSSHRGVIADNQAKWAVPTTRTDDKLRMETCFQQACKGKIQALCENPEWAPLKDNRIPSYGVLSVDLSLTVELKIKIASGFGPLITHGSGMDLYKSNHNNVYWLTIPPMKNLALGVINTLEWIPRFKVSPYLFTVPIKEAGGDCHAPTYLPAEVDGDVKLSSNLVILPGQDLQYVLATYDTSRVEHAVVYYVYSPSRSFSYFYPFRLPIKGVPIELQVECFTWDQKLWCRHFCVLADSESGGHITHSGMVGMGVSCTVTREDGTNRR
B4: HcΔ14 (other)
chain: MPHPKGSRIVINREHLMIDRPYVLLAVLFVMFLSLIGLLAIAGIRLHRAAIYTAEIHKSLSTNLDVTNSIEHQVKDVLTPLFKIIGDEVGLRTPQRFTDLVKFISDKIKFLNPDREYDFRDLTWCINPPERIKLDYDQYCADVAAEELMNALVNSTLLETRTTNQFLAVSKGNCSGPTTIRGQFSNMSLSLLDLYLGRGYNVSSIVTMTSQGMYGGTYLVEKPNLSSKRSELSQLSMYRVFEVGVIRNPGLGAPVFHMTNYLEQPVSNDLSNCMVALGELKLAALCHGEDSITIPYQGSGKGVSFQLVKLGVWKSPTDMQSWVPLSTDDPVIDRLYLSSHRGVIADNQAKWAVPTTRTDDKLRMETCFQQACKGKIQALCENPEWAPLKDNRIPSYGVLSVDLSLTVELKIKIASGFGPLITHGSGMDLYKSNHNNVYWLTIPPMKNLALGVINTLEWIPRFKVSPYLFTVPIKEAGGDCHAPTYLPAEVDGDVKLSSNLVILPGQDLQYVLATYDTSRVEHAVVYYVYSPSRSFSYFYPFRLPIKGVPIELQVECFTWDQKLWCRHFCVLADSESGGHITHSGMVGMGVSCTVTREDGTNRR
B5: HcΔ21 (other)
chain: MIVINREHLMIDRPYVLLAVLFVMFLSLIGLLAIAGIRLHRAAIYTAEIHKSLSTNLDVTNSIEHQVKDVLTPLFKIIGDEVGLRTPQRFTDLVKFISDKIKFLNPDREYDFRDLTWCINPPERIKLDYDQYCADVAAEELMNALVNSTLLETRTTNQFLAVSKGNCSGPTTIRGQFSNMSLSLLDLYLGRGYNVSSIVTMTSQGMYGGTYLVEKPNLSSKRSELSQLSMYRVFEVGVIRNPGLGAPVFHMTNYLEQPVSNDLSNCMVALGELKLAALCHGEDSITIPYQGSGKGVSFQLVKLGVWKSPTDMQSWVPLSTDDPVIDRLYLSSHRGVIADNQAKWAVPTTRTDDKLRMETCFQQACKGKIQALCENPEWAPLKDNRIPSYGVLSVDLSLTVELKIKIASGFGPLITHGSGMDLYKSNHNNVYWLTIPPMKNLALGVINTLEWIPRFKVSPYLFTVPIKEAGGDCHAPTYLPAEVDGDVKLSSNLVILPGQDLQYVLATYDTSRVEHAVVYYVYSPSRSFSYFYPFRLPIKGVPIELQVECFTWDQKLWCRHFCVLADSESGGHITHSGMVGMGVSCTVTREDGTNRR
B6: HcΔ23 (other)
chain: MINREHLMIDRPYVLLAVLFVMFLSLIGLLAIAGIRLHRAAIYTAEIHKSLSTNLDVTNSIEHQVKDVLTPLFKIIGDEVGLRTPQRFTDLVKFISDKIKFLNPDREYDFRDLTWCINPPERIKLDYDQYCADVAAEELMNALVNSTLLETRTTNQFLAVSKGNCSGPTTIRGQFSNMSLSLLDLYLGRGYNVSSIVTMTSQGMYGGTYLVEKPNLSSKRSELSQLSMYRVFEVGVIRNPGLGAPVFHMTNYLEQPVSNDLSNCMVALGELKLAALCHGEDSITIPYQGSGKGVSFQLVKLGVWKSPTDMQSWVPLSTDDPVIDRLYLSSHRGVIADNQAKWAVPTTRTDDKLRMETCFQQACKGKIQALCENPEWAPLKDNRIPSYGVLSVDLSLTVELKIKIASGFGPLITHGSGMDLYKSNHNNVYWLTIPPMKNLALGVINTLEWIPRFKVSPYLFTVPIKEAGGDCHAPTYLPAEVDGDVKLSSNLVILPGQDLQYVLATYDTSRVEHAVVYYVYSPSRSFSYFYPFRLPIKGVPIELQVECFTWDQKLWCRHFCVLADSESGGHITHSGMVGMGVSCTVTREDGTNRR
B7: HcΔ24 (other)
chain: MNREHLMIDRPYVLLAVLFVMFLSLIGLLAIAGIRLHRAAIYTAEIHKSLSTNLDVTNSIEHQVKDVLTPLFKIIGDEVGLRTPQRFTDLVKFISDKIKFLNPDREYDFRDLTWCINPPERIKLDYDQYCADVAAEELMNALVNSTLLETRTTNQFLAVSKGNCSGPTTIRGQFSNMSLSLLDLYLGRGYNVSSIVTMTSQGMYGGTYLVEKPNLSSKRSELSQLSMYRVFEVGVIRNPGLGAPVFHMTNYLEQPVSNDLSNCMVALGELKLAALCHGEDSITIPYQGSGKGVSFQLVKLGVWKSPTDMQSWVPLSTDDPVIDRLYLSSHRGVIADNQAKWAVPTTRTDDKLRMETCFQQACKGKIQALCENPEWAPLKDNRIPSYGVLSVDLSLTVELKIKIASGFGPLITHGSGMDLYKSNHNNVYWLTIPPMKNLALGVINTLEWIPRFKVSPYLFTVPIKEAGGDCHAPTYLPAEVDGDVKLSSNLVILPGQDLQYVLATYDTSRVEHAVVYYVYSPSRSFSYFYPFRLPIKGVPIELQVECFTWDQKLWCRHFCVLADSESGGHITHSGMVGMGVSCTVTREDGTNRR
B8: HcΔ22 (other)
chain: MVINREHLMIDRPYVLLAVLFVMFLSLIGLLAIAGIRLHRAAIYTAEIHKSLSTNLDVTNSIEHQVKDVLTPLFKIIGDEVGLRTPQRFTDLVKFISDKIKFLNPDREYDFRDLTWCINPPERIKLDYDQYCADVAAEELMNALVNSTLLETRTTNQFLAVSKGNCSGPTTIRGQFSNMSLSLLDLYLGRGYNVSSIVTMTSQGMYGGTYLVEKPNLSSKRSELSQLSMYRVFEVGVIRNPGLGAPVFHMTNYLEQPVSNDLSNCMVALGELKLAALCHGEDSITIPYQGSGKGVSFQLVKLGVWKSPTDMQSWVPLSTDDPVIDRLYLSSHRGVIADNQAKWAVPTTRTDDKLRMETCFQQACKGKIQALCENPEWAPLKDNRIPSYGVLSVDLSLTVELKIKIASGFGPLITHGSGMDLYKSNHNNVYWLTIPPMKNLALGVINTLEWIPRFKVSPYLFTVPIKEAGGDCHAPTYLPAEVDGDVKLSSNLVILPGQDLQYVLATYDTSRVEHAVVYYVYSPSRSFSYFYPFRLPIKGVPIELQVECFTWDQKLWCRHFCVLADSESGGHITHSGMVGMGVSCTVTREDGTNRR
B9: HmutscFvCD20Δ19 (other)
chain: MSRIVINREHLMIDRPYVLLAVLFVMFLSLIGLLAIAGIRLHRAAIYTAEIHKSLSTNLDVTNSIEHQVKDVLTPLFKIIGDEVGLRTPQRFTDLVKFISDKIKFLNPDREYDFRDLTWCINPPERIKLDYDQYCADVAAEELMNALVNSTLLETRTTNQFLAVSKGNCSGPTTIRGQFSNMSLSLLDLYLGRGYNVSSIVTMTSQGMYGGTYLVEKPNLSSKRSELSQLSMYRVFEVGVIRNPGLGAPVFHMTNYLEQPVSNDLSNCMVALGELKLAALCHGEDSITIPYQGSGKGVSFQLVKLGVWKSPTDMQSWVPLSTDDPVIDRLYLSSHRGVIADNQAKWAVPTTRTDDKLRMETCFQQACKGKIQALCENPEWAPLKDNRIPSYGVLSVDLSLTVELKIKIASGFGPLITHGSGMDLYKSNHNNVYWLTIPPMKNLALGVINTLEWIPRFKVSPALFTVPIKEAGGDCHAPTYLPAEVDGDVKLSSNLVILPGQDLQYVLATYDTSAVEHAVVYYVYSPSRLSSYFYPFRLPIKGVPIELQVECFTWDQKLWCRHFCVLADSESGGHITHSGMVGMGVSCTVTREDGTNAAQPAIEGRMAQVQLVQSGAELVKPGASVKMSCKASGYTFTSYNMHWVKQTPGQGLEWIGAIYPGNGDTSYNQKFKGKATLTADKSSSTAYMQLSSLTSEDSAVYYCARAQLRPNYWYFDVWGAGTTVTVSKISGGGGSGGGGSGGGGSGGSSDIVLSQSPAILSASPGEKVTMTCRASSSVSYMHWYQQKPGSSPKPWIYATSNLASGVPARFSGSGSGTSYSLTISRVEAEDAATYYCQQWISNPPTFGAGTKLELKAAARGSHHHHHH

Target: T1, CD46 (human, UniProt P15529)
Assay: cell-based or functional assay

| Binder | titer [t.u./ml] of HIV-1 vector particles on 293T cells, concentrated supernatant [t.u./ml] | titer [t.u./ml] of HIV-1 vector particles on U-87MG cells, concentrated supernatant [t.u./ml] |
| --- | --- | --- |
| B1 | 1.6e+06 | ≥ 1e+06 |
| B2 | 1e+06 | ≥ 1e+06 |
| B3 | 200000 | ≥ 1e+06 |
| B4 | 2900 | 3420 |

Target: T1, CD46
Assay: cell-based or functional assay
Remark: another data set of the same source

| Binder | titer [t.u./ml] of HIV-1 vector particles on HT1080 cells, not concentrated supernatant [t.u./ml] |
| --- | --- |
| B5 | 1500 |
| B6 | 130 |
| B7 | 88 |
| B8 | 140 |

Target: human CD20 (human, UniProt P11836)
Assay: cell-based or functional assay

| Binder | titer [t.u./ml] of HIV-1 vector particles on HT1080-CD20 cells, concentrated supernatant [t.u./ml] |
| --- | --- |
| B9 | 1.32e+06 |

Reference: patent US9862971B2 (BUNDESREPUBLIK DEUTSCHLAND, LETZTVERTRETEN DURCH DEN …, dated 2018)
